The record followed here is article PMC10527347 (Journal of molecular biology, 2023).

Changes are numbered by the printed parent chain. Names and notes keep the numbering of the source. Read-outs that look alike come from different tables or passages of the source.

The target in series [1] is T1, Hsp90Ec N347C (E. coli, UniProt P0A6Z3 1-624, N347C). As to the kind of experiment: cross-linking.
The target of series [2] is T2, Hsp90Ec wild-type (E. coli, UniProt P0A6Z3 1-624). As to the kind of experiment: BLI.
The target in series [3] is T2, Hsp90Ec wild-type. As to the kind of experiment: cross-linking.
The target of series [4] is T3, Hsp90Ec K199C (E. coli, UniProt P0A6Z3 1-624, K199C). As to the kind of experiment: cross-linking.
The target in series [5] is Hsp90Ec K45C (E. coli, UniProt P0A6Z3 1-624, K45C). As to the kind of experiment: cross-linking.
The target in series [6] is T3, Hsp90Ec K199C. As to the kind of experiment: cross-linking. This is another data set of the same source.
For series [7], the target named is Hsp90Ec K238C (E. coli, UniProt P0A6Z3 1-624, K238C). Put plainly: cross-linking.
For series [8], the target named is Hsp90Ec K103C (E. coli, UniProt P0A6Z3 1-624, K103C). Put plainly: cross-linking.
The target in series [9] is Hsp90Ec K71C (E. coli, UniProt P0A6Z3 1-624, K71C). As to the kind of experiment: cross-linking.
The target in series [10] is Hsp90Ec K354C (E. coli, UniProt P0A6Z3 1-624, K354C). Put plainly: cross-linking.
Series [11] has as its target Hsp90Ec K99C (E. coli, UniProt P0A6Z3 1-624, K99C). Put plainly: cross-linking.
Series [12] deals with T1, Hsp90Ec N347C. As to the kind of experiment: cross-linking. The source holds these as a separate data set.
Series [13] concerns the molecule itself. Put plainly: cross-linking.
Series [14] deals with Hsp90Ec N350C (E. coli, UniProt P0A6Z3 1-624, N350C). As to the kind of experiment: cross-linking.
Series [15] addresses Hsp90Ec N347C/D80N (E. coli, UniProt P0A6Z3 1-624, N347C | D80N). Put plainly: cross-linking.
Series [16] has as its target T4, biotin-labeled Ydj1 (S. cerevisiae, UniProt P25491 1-409, biotin label (site not stated)).
T4 sequence (looked up): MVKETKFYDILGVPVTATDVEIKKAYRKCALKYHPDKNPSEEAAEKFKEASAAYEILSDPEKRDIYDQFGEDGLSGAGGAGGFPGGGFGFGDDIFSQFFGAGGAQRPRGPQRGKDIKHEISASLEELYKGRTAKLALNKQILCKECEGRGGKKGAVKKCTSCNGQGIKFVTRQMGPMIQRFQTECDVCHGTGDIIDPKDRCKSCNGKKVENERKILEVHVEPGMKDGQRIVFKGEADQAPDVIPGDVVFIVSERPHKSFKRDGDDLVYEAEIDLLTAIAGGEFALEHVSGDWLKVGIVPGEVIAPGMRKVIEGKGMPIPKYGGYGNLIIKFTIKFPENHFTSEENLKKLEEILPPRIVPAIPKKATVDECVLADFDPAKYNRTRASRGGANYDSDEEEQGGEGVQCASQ
As to the kind of experiment: pull-down.

B1: CbpA A44C (natural protein, E. coli, UniProt P36659 1-306, looked up)
chain: MELKDYYAIMGVKPTDDLKTIKTAYRRLARKYHPDVSKEPDAECRFKEVAEAWEVLSDEQRRAEYDQMWQHRNDPQFNRQFHHGDGQSFNAEDFDDIFSSIFGQHARQSRQRPATRGHDIEIEVAVFLEETLTEHKRTISYNLPVYNAFGMIEQEIPKTLNVKIPAGVGNGQRIRLKGQGTPGENGGPNGDLWLVIHIAPHPLFDIVGQDLEIVVPVSPWEAALGAKVTVPTLKESILLTIPPGSQAGQRLRVKGKGLVSKKQTGDLYAVLKIVMPPKPDENTAALWQQLADAQSSFDPRKDWGKA
In the case of B1, in [1], the binding result was “binds”.

B2: biotin-labeled DnaJ (natural protein, E. coli, UniProt P08622 1-376, looked up)
chain: MAKQDYYEILGVSKTAEEREIRKAYKRLAMKYHPDRNQGDKEAEAKFKEIKEAYEVLTDSQKRAAYDQYGHAAFEQGGMGGGGFGGGADFSDIFGDVFGDIFGGGRGRQRAARGADLRYNMELTLEEAVRGVTKEIRIPTLEECDVCHGSGAKPGTQPQTCPTCHGSGQVQMRQGFFAVQQTCPHCQGRGTLIKDPCNKCHGHGRVERSKTLSVKIPAGVDTGDRIRLAGEGEAGEHGAPAGDLYVQVQVKQHPIFEREGNNLYCEVPINFAMAALGGEIEVPTLDGRVKLKVPGETQTGKLFRMRGKGVKSVRGGAQGDLLCRVVVETPVGLNERQKQLLQELQESFGGPTGEHNSPRSKSFFDGVKKFFDDLTR
modifications: biotin label (site not stated)
The Kd is the concentration at which binding is half-saturated. Higher therefore signals lower affinity. The molecule B2 came in with a Kd in series [2] of 3.6 ± 0.3 µM.

B3: CbpA wild-type (natural protein, E. coli, UniProt P36659 1-306, looked up)
chain: B1 chain with C44A
As to B3, the binding result in [3] and in series [4] was “binds” throughout.

B4: CbpA S57C (natural protein, E. coli, UniProt P36659 1-306, looked up)
chain: B1 chain with C44A, S57C
Regarding B4, the binding result in series [1] was “binds”.

B5: CbpA K22C (natural protein, E. coli, UniProt P36659 1-306, looked up)
chain: B1 chain with K22C, C44A
For the molecule B5, the binding result in series [1], in [5], in series [6], in series [7], in series [8] and in series [9] was “binds” throughout. Besides, the binding result in series [10] and in series [11] was “binds” throughout.

B6: CbpA E51C (natural protein, E. coli, UniProt P36659 1-306, looked up)
chain: B1 chain with C44A, E51C
As for B6, the binding result in series [12], in [13], in series [14], in [15] and in series [4] was “binds” each time.

B7: Hsp82 wild-type (natural protein)
chain: not shown
Turning to B7, in [16], the “fold change in interaction, with L2 against without L2” value was about 2 fold.
